Assay results as given in patent KR20230168598A (dated 2023).
Values belong to the binder of their own block, whether it stands above or below them.

Target: T1, 재조합 인간 TIGIT 단백질 (acrobiosystems, China) (human, UniProt Q495A1 22-141)
T1 construct: Bought recombinant protein; also called hTIGIT
T1 sequence: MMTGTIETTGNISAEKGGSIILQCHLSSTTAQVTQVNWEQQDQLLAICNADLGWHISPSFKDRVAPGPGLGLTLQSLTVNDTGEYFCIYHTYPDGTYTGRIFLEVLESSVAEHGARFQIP
Test: SPR (Biacore T200), multi-cycle kinetics, antibody captured, TIGIT as analyte, 1:1 model

Kd: 0.986 nM
koff: 0.000216 s⁻¹
kon: 219000 M⁻¹ s⁻¹
B1: 마우스 항-TIGIT 단클론 항체 3F8 (mouse backbone mIgG1) (antibody, V domains shown)
VH: EVQLQQSGPELVKPGASMKISCKASGYSFTDYIMNWVKQSHGKNLEWIGLSIPYNGGTSYNQKFEGKATLTVDKSSSTAYMELLSLTSEDSAVYYCARGIKGYFAMDYWGQGTSVTVSS
VL: DVVVTQTPLSLPVSFGDQVSISCRSSQSLVNSFGKTYLSWFLHKPGQSPQLIMYGVSNRFSGVPDRFSGSGSGTDFTLKISTIKPEDLGMYYCLQGTHQPWTFGGGTKLEIK
notes: also called 항-TIGIT 3F8 항체; 클론 3F8

Kd: 1.89 nM
koff: 0.000445 s⁻¹
kon: 235000 M⁻¹ s⁻¹
B2: 마우스 항-TIGIT 단클론 항체 2B7 (mouse backbone mIgG1) (antibody, V domains shown)
VH: EVQLQQSGPELVKPGASVKISCKTSGSTFTEYTMHWVKQSHGKSLEWIGGLNPNNGGTSYNQRFKDRATLTVDKSSSTAYMELRSLTSEDSAVYYCTRGTYYDYSFAYWGQGTLVTVSA
VL: DIVMTQSHKFMSTSVGDRVSITCKASHYVSTAVAWYQQKPGQSPKLLIYSPSYRYTGVPDRFTGSGSGTDFTFTISSVQAEDLAVYYCHQHYSTPWTFGGGTKLEIK
notes: also called 항-TIGIT 2B7 항체; 클론 2B7
